The record followed here is doi:10.1101/2022.10.06.511240 (bioRxiv, 2022).

The experiment addresses T1, NRT1.1-His (Arabidopsis thaliana, UniProt Q05085 1-590).
T1 sequence (looked up): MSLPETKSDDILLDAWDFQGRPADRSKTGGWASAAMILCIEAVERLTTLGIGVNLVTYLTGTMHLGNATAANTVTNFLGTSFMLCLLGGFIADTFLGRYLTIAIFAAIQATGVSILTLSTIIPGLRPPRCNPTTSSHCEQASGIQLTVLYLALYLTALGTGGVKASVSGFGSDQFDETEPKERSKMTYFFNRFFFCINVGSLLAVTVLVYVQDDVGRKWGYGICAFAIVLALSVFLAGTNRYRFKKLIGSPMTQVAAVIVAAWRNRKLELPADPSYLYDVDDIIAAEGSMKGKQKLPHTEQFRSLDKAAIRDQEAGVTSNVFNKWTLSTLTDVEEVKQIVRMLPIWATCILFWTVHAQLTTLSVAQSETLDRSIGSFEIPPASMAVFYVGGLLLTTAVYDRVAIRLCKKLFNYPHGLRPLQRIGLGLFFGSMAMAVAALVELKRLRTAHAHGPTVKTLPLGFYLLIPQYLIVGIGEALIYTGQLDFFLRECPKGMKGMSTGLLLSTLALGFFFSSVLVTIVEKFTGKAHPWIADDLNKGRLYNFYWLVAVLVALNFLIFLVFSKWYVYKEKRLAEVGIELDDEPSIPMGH
Put plainly: pull-down.

B1: CPK6-GST (enzyme, Arabidopsis thaliana, UniProt Q38872 1-544, looked up)
chain: MGNSCRGSFKDKIYEGNHSRPEENSKSTTTTVSSVHSPTTDQDFSKQNTNPALVIPVKEPIMRRNVDNQSYYVLGHKTPNIRDLYTLSRKLGQGQFGTTYLCTDIATGVDYACKSISKRKLISKEDVEDVRREIQIMHHLAGHKNIVTIKGAYEDPLYVHIVMELCAGGELFDRIIHRGHYSERKAAELTKIIVGVVEACHSLGVMHRDLKPENFLLVNKDDDFSLKAIDFGLSVFFKPGQIFKDVVGSPYYVAPEVLLKHYGPEADVWTAGVILYILLSGVPPFWAETQQGIFDAVLKGYIDFDTDPWPVISDSAKDLIRKMLCSSPSERLTAHEVLRHPWICENGVAPDRALDPAVLSRLKQFSAMNKLKKMALKVIAESLSEEEIAGLRAMFEAMDTDNSGAITFDELKAGLRRYGSTLKDTEIRDLMEAADVDNSGTIDYSEFIAATIHLNKLEREEHLVSAFQYFDKDGSGYITIDELQQSCIEHGMTDVFLEDIIKEVDQDNDGRIDYEEFVAMMQKGNAGVGRRTMKNSLNISMRDV
As for B1, the binding result is on record as “binds”.
